Laboratory results published in publication PMC6335420, “The cell cycle regulator GpsB functions as cytosolic adaptor for multiple cell wall enzymes” (Nature Communications, 2019).
Residues, ends and D or L forms follow the SMILES beside them. No end group written: not given here. *: point of attachment. X1 = CN(C)c1ccc2c(-c3ccc(N4C(=O)CC(*)C4=O)cc3C(=O)[O-])c3ccc(=[N+](C)C)cc-3oc2c1; fluorescein‑maleimide = fluorescein attached via maleimide to Cys

B1: Fluorescein-BsPBP11-32 Ala10Pro (peptide)
peptide: GSMADQFNSREPRRKANSKSSPSPKKGKKRKKC(fluorescein‑maleimide)G
notes: non-native N-terminal residues left by the recombinant method; PBP1 (ponA), Bacillus subtilis, residues 1-32; also called 31-labelled BsPBP1 1-32 A10P
B2: Fluorescein-BsPBP11-32 Arg8Ala (peptide)
peptide: GSMADQFNSAEARRKANSKSSPSPKKGKKRKKC(fluorescein‑maleimide)G
notes: non-native N-terminal residues left by the recombinant method; PBP1 (ponA), Bacillus subtilis, residues 1-32; also called 31-labelled BsPBP1 1-32 R8A
B3: TAMRA-BsPBP11-32 Arg8Ala (peptide)
peptide: GSMADQFNSAEARRKANC(TAMRA‑maleimide)KSSPSPKKGKKRKKGG
notes: non-native N-terminal residues left by the recombinant method; PBP1 (ponA), Bacillus subtilis, residues 1-32; also called BsPBP1 1-32 R8A
B4: TAMRA-BsPBP11-32 Arg11Ala (peptide)
peptide: GSMADQFNSREAARKANC(TAMRA‑maleimide)KSSPSPKKGKKRKKGG
notes: non-native N-terminal residues left by the recombinant method; PBP1 (ponA), Bacillus subtilis, residues 1-32; also called BsPBP1 1-32 R11A
B5: TAMRA-BsPBP11-32 Arg28Ala (peptide)
peptide: GSMADQFNSREARRKANC(TAMRA‑maleimide)KSSPSPKKGKKAKKGG
notes: non-native N-terminal residues left by the recombinant method; PBP1 (ponA), Bacillus subtilis, residues 1-32; also called BsPBP1 1-32 R28A
B6: Fluorescein-BsPBP11-32 Arg28Ala (peptide)
peptide: GSMADQFNSREARRKANSKSSPSPKKGKKAKKC(fluorescein‑maleimide)G
notes: non-native N-terminal residues left by the recombinant method; PBP1 (ponA), Bacillus subtilis, residues 1-32; also called 31-labelled BsPBP1 1-32 R28A
B7: TAMRA-BsPBP11-32 Ser7Ala (peptide)
peptide: GSMADQFNAREARRKANC(TAMRA‑maleimide)KSSPSPKKGKKRKKGG
notes: non-native N-terminal residues left by the recombinant method; PBP1 (ponA), Bacillus subtilis, residues 1-32; also called BsPBP1 1-32 S7A
B8: Fluorescein-BsPBP11-32 wildtype (peptide)
peptide: GSMADQFNSREARRKANSKSSPSPKKGKKRKKC(fluorescein‑maleimide)G
notes: non-native N-terminal residues left by the recombinant method; PBP1 (ponA), Bacillus subtilis, residues 1-32, cytoplasmic mini-domain; also called BsPBP1 1-32 labelled with fluorescein at residue 31; 31-labelled peptide
B9: TAMRA-BsPBP11-32 Arg8Lys (peptide)
peptide: GSMADQFNSKEARRKANC(TAMRA‑maleimide)KSSPSPKKGKKRKKGG
notes: non-native N-terminal residues left by the recombinant method; PBP1 (ponA), Bacillus subtilis, residues 1-32; also called BsPBP1 1-32 R8K
B10: TAMRA-BsPBP11-32 Ala10Pro (peptide)
peptide: GSMADQFNSREPRRKANC(TAMRA‑maleimide)KSSPSPKKGKKRKKGG
notes: non-native N-terminal residues left by the recombinant method; PBP1 (ponA), Bacillus subtilis, residues 1-32; also called BsPBP1 1-32 A10P

Molecular target: T1, BsGpsB1-68 (B. subtilis, UniProt P0CI74 1-68)
T1 construct: GpsB, Bacillus subtilis, residues 1-68 (N-terminal domain); also called N-terminal domain of B. subtilis GpsB; wildtype BsGpsB1-68; source: E. coli BL21(DE3), purified (Ni-NTA, thrombin removal of the His6-tag, SEC); not shown: His6, N-terminal, cleaved
T1 sequence (looked up): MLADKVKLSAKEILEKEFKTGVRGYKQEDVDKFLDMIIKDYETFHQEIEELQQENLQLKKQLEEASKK
Experiment: fluorescence polarisation; GpsB protein titrated into TAMRA- or fluorescein-labelled peptide; 10 mM Tris.HCl pH 8.0, 250 mM NaCl, 0.1% reduced Triton X-100; all data fitted to a 1:1 interaction model, Kd ± standard error
Details: both partners purified

Question: With B1 as the molecule, how does the Kd read?
Answer: > 500 µM

Question: For B2, which Kd is on record?
Answer: > 500 µM

Question: B3 was tested. Which Kd did it give?
Answer: > 1700 µM

Question: With B4 as the molecule, how does the Kd read?
Answer: > 600 µM

Question: Which Kd does the source give for B5 here?
Answer: 90 µM

Question: How did the Kd turn out when B6 was run?
Answer: 130 µM

Question: B7 was tested. Which Kd did it give?
Answer: > 700 µM

Question: With B8 as the molecule, how does the Kd read?
Answer: 100 µM

Question: How did the Kd turn out when B9 was run?
Answer: > 2000 µM

Question: Which Kd does the source give for B10 here?
Answer: > 1000 µM

Molecular target: T2, BsGpsB1-68 (Bacillus subtilis, UniProt P0CI74)
T2 construct: His6 (N, cleaved yes); made in house; host or cells: E. coli BL21(DE3)
Experiment: not given
Format: binding
Details: FP, relative to wild-type peptide
Description: 75 the BsGpsB5-64:BsPBP11-17 complex.

Question: How did the “reduction in affinity for BsGpsB1-68” value turn out when `CSCC[C@H](NC(=O)[C@H](CO)NC(=O)CN)C(=O)N[C@@H](C)C(=O)N[C@@H](CC(=O)O)C(=O)N[C@@H](CCC(N)=O)C(=O)N[C@@H](Cc1ccccc1)C(=O)N[C@@H](CC(N)=O)C(=O)N[C@@H](CO)C(=O)N[C@@H](CCCNC(=N)N)C(=O)N[C@@H](CCC(=O)O)C(=O)N[C@@H](C)C(=O)N[C@@H](C)C(=O)N[C@@H](CCCNC(=N)N)C(=O)N[C@@H](CCCCN)C(=O)N[C@@H](C)C(=O)N[C@@H](CC(N)=O)C(=O)N[C@@H](CSC1CC(=O)N(c2ccc(-c3c4ccc(=[N+](C)C)cc-4oc4cc(N(C)C)ccc34)c(C(=O)[O-])c2)C1=O)C(=O)N[C@@H](CCCCN)C(=O)N[C@@H](CO)C(=O)N[C@@H](CO)C(=O)N1CCC[C@H]1C(=O)N[C@@H](CO)C(=O)N1CCC[C@H]1C(=O)N[C@@H](CCCCN)C(=O)N[C@@H](CCCCN)C(=O)NCC(=O)N[C@@H](CCCCN)C(=O)N[C@@H](CCCCN)C(=O)N[C@@H](CCCNC(=N)N)C(=O)N[C@@H](CCCCN)C(=O)N[C@@H](CCCCN)C(=O)NCC(=O)NCC(=O)O` (some centres unmarked) [TAMRA-BsPBP11-32 Arg11Ala] (H-GSMADQFNSREAARKANC(X1)KSSPSPKKGKKRKKGG-OH) was run?
Answer: at least 5 fold
